# B1: truncated mouse Kif21a-917 fused to GFP (domain or fragment, UniProt Q9QXL2 1-917, looked up)
# chain: MLGAADESSVRVAVRIRPQLAKEKIEGCHICTSVTPGEPQVFLGKDKAFTFDYVFDIDSQQEQIYTQCIEKLIEGCFEGYNATVFAYGQTGAGKTYTMGTGFDVNIMEEEQGIISRAVRHLFKSIDEKKTSAIKNGLPPPEFKVNAQFLELYNEEVLDLFDTTRDIDAKNKKSNIRIHEDSTGGIYTVGVTTRTVNTEPEMMQCLKLGALSRTTASTQMNVQSSRSHAIFTIHVCQTRVCPQTDAENATDNKLISESSPMNEFETLTAKFHFVDLAGSERLKRTGATGERAKEGISINCGLLALGNVISALGDKSKRATHVPYRDSKLTRLLQDSLGGNSQTIMIACVSPSDRDFMETLNTLKYANRARNIKNKVMVNQDRASQQINALRSEITRLQMELMEYKTGKRIIDEEGVESINDMFHENAMLQTENNNLRVRIKAMQETVDALRARITQLVSEQANQVLARAGEGNEEISNMIHSYIKEIEDLRAKLLESEAVNENLRKNLTRATARSPYFSASSAFSPTILSSDKETIEIIDLAKKDLEKLKRKEKKKKKRLQKLEESGREERSVAGKDDNADTDQEKKEEKGVSEKENNELDVEENQEVSDHEDEEEEEEDEEEEDDIEGEESSDESDSESDEKANYQADLANITCEIAIKQKLIDELENSQKRLQTLKKQYEEKLMMLQHKIRDTQLERDQVLQNLGSVESYSEEKAKKVKCEYEKKLHAMNKELQRLQTAQKEHARLLKNQSQYEKQLKKLQQDVMEMKKTKVRLMKQMKEEQEKARLTESRRNREIAQLKKDQRKRDHQLRLLEAQKRNQEVVLRRKTEEVTALRRQVRPMSDKVAGKVTRKLSSSESPAPDTGSSAASGEADTSRPGTQQKMRIPVARVQALPTPTTNGTRKKYQRKGFTGRVFT
# B2: full-length mouse Kif21a fused to GFP (natural protein, UniProt Q9QXL2 1-1672, looked up)
# chain: MLGAADESSVRVAVRIRPQLAKEKIEGCHICTSVTPGEPQVFLGKDKAFTFDYVFDIDSQQEQIYTQCIEKLIEGCFEGYNATVFAYGQTGAGKTYTMGTGFDVNIMEEEQGIISRAVRHLFKSIDEKKTSAIKNGLPPPEFKVNAQFLELYNEEVLDLFDTTRDIDAKNKKSNIRIHEDSTGGIYTVGVTTRTVNTEPEMMQCLKLGALSRTTASTQMNVQSSRSHAIFTIHVCQTRVCPQTDAENATDNKLISESSPMNEFETLTAKFHFVDLAGSERLKRTGATGERAKEGISINCGLLALGNVISALGDKSKRATHVPYRDSKLTRLLQDSLGGNSQTIMIACVSPSDRDFMETLNTLKYANRARNIKNKVMVNQDRASQQINALRSEITRLQMELMEYKTGKRIIDEEGVESINDMFHENAMLQTENNNLRVRIKAMQETVDALRARITQLVSEQANQVLARAGEGNEEISNMIHSYIKEIEDLRAKLLESEAVNENLRKNLTRATARSPYFSASSAFSPTILSSDKETIEIIDLAKKDLEKLKRKEKKKKKRLQKLEESGREERSVAGKDDNADTDQEKKEEKGVSEKENNELDVEENQEVSDHEDEEEEEEDEEEEDDIEGEESSDESDSESDEKANYQADLANITCEIAIKQKLIDELENSQKRLQTLKKQYEEKLMMLQHKIRDTQLERDQVLQNLGSVESYSEEKAKKVKCEYEKKLHAMNKELQRLQTAQKEHARLLKNQSQYEKQLKKLQQDVMEMKKTKVRLMKQMKEEQEKARLTESRRNREIAQLKKDQRKRDHQLRLLEAQKRNQEVVLRRKTEEVTALRRQVRPMSDKVAGKVTRKLSSSESPAPDTGSSAASGEADTSRPGTQQKMRIPVARVQALPTPTTNGTRKKYQRKGFTGRVFTSKTARMKWQLLERRVTDIIMQKMTISNMEADMNRLLRQREELTKRREKLSKRREKIVKESGEGDKSVANIIEEMESLTANIDYINDSIADCQANIMQMEEAKEEGETLDVTAVINACTLTEARYLLDHFLSMGINKGLQAAQKEAQIKVLEGRLKQTEITSATQNQLLFHMLKEKAELNPELDALLGHALQDLDGAPPENEEDSSEEDGPLHSPGSEGSTLSSDLMKLCGEVKPKNKARRRTTTQMELLYADSSEVASDTSAGDASLSGPLAPVAEGQEIGMNTETSGTSARDKELLAPSGLPSKIGSISRQSSLSEKKVPEPSPVTRRKAYEKADKPKAKEHKHSDSGASETSLSPPSSPPSRPRNELNVFNRLTVPQGTPSVQQDKSDESDSSLSEVHRGIINPFPACKGVRASPLQCVHIAEGHTKAVLCVDSTDDLLFTGSKDRTCKVWNLVTGQEIMSLGVHPNNVVSVKYCNYTSLVFTVSTSYIKVWDIRESAKCIRTLTSSGQVTLGEACSASTSRTVAIPSGESQINQIALNPTGTFLYAASGNAVRMWDLKRFQSTGKLTGHLGPVMCLTVDQISNGQDLIITGSKDHYIKMFDVTEGALGTVSPTHNFEPPHYDGIEALAIQGDNLFSGSRDNGIKKWDLAQKGLLQQVPNAHKDWVCALGLVPGHPVLLSGCRGGILKLWNVDTFVPVGEMRGHDSPINAICVNSTHVFTAADDRTVRIWKAHNLQDGQLSDTGDLGEDIASN
# Legend:
# [1] = molecular target: microtubules assembled from purified wildtype yeast tubulin (Tub1/Tub2 heterodimer) (yeast, UniProt P09733 1-447; P02557 1-457); test: single-molecule TIRF microscopy of kinesin-GFP on surface-attached microtubules
# [2] = molecular target: microtubules assembled from purified beta-R380C yeast tubulin (Tub1/Tub2-R380C) (yeast, UniProt P09733 1-447; P02557 1-457, R380C); test: as above
Binder,fold increase in binding relative to full-length Kif21a [1] [fold],increase in binding frequency relative to wildtype microtubules [2] [%],increase in plus-end dwell time relative to wildtype microtubules [2] [%],"plus-end dwell time relative to wildtype microtubules, high salt [2] [fold]",plus-end dwell time relative to wildtype microtubules [2] [fold]
B1,~100,31,45,~2,
B2,,29,,,2

# — paper PMC10916880 (Molecular Biology of the Cell, 2024)
